This is an account of results in publication PMC3536657.

Assay [1] addresses b12 chimeric IgG, germline heavy chain paired with the mature light chain (human). Kind of assay: BLI; antibody-capture kinetics: IgG on biosensors, 2-fold serial dilutions of Env; mean of curves with R^2 >= 0.95.
Assay [2] addresses b12 chimeric IgG, mature heavy chain paired with the germline light chain (human). The assay is described as above.
Assay [3] has as its target mature IgG b12 (human). The assay is described as above.
The target of assay [4] is HXB2 gp120 (HIV-1 clade B, isolate HXB2) (UniProt P04578).
Assay [5] addresses QH0692 gp120 (HIV-1 (clade B, isolate QH0692)).

Sequence of mature IgG b12 (human) (heavy, as listed by the source, chain 1 of 2): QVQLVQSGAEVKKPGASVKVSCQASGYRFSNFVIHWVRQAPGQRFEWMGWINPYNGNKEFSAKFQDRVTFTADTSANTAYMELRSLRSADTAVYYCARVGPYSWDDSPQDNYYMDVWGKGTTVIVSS
Sequence of mature IgG b12 (human) (light, as listed by the source, chain 2 of 2): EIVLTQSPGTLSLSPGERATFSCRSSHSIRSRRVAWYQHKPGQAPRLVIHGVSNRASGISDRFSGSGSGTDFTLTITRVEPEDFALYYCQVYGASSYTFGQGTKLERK
Sequence of b12 chimeric IgG, germline heavy chain paired with the mature light chain (human) (heavy, as listed by the source, chain 1 of 2): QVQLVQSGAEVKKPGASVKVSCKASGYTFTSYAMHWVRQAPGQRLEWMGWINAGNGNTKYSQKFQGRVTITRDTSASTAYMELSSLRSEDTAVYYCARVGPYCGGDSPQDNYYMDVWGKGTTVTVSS
Sequence of b12 chimeric IgG, mature heavy chain paired with the germline light chain (human) (light, as listed by the source, chain 2 of 2): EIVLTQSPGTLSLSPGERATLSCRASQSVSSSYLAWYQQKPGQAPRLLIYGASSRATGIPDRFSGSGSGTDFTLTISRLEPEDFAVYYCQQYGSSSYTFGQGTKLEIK

In general, Kd refers to the equilibrium constant for the complex coming apart. Low readings indicate higher affinity, high ones lower affinity. Turning to QH0692 gp120 (natural protein), the Ka in assay [1] stood at 1.39e+07 M⁻¹; in assay [2], 7.56e+06 M⁻¹; in assay [3] it was 2e+09 M⁻¹. The same substance displayed a Kd in assay [3] of 2 nM.

As for mature IgG b12 (antibody), the neutralisation of HXB2 virions (luciferase reporter cells), IC50 in assay [4] was determined as 2 ng/mL. The same substance came in with a neutralisation of QH0692 virions (luciferase reporter cells), IC50 in assay [5] of 0.22 µg/mL.
